T1: GFP-9S library array, motif 4 ND N98I (synthetic construct, N98I)
T1 chain: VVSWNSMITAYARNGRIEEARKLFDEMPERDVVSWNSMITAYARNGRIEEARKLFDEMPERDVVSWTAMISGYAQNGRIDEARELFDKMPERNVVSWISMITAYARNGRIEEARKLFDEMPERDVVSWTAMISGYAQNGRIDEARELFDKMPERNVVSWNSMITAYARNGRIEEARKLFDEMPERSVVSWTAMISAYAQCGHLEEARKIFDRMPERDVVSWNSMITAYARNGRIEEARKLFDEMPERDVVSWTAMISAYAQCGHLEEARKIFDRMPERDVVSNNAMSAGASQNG

T2: GFP-9S library array, motif 4 ND N98P;D124C (synthetic construct, N98P;D124C)
T2 chain: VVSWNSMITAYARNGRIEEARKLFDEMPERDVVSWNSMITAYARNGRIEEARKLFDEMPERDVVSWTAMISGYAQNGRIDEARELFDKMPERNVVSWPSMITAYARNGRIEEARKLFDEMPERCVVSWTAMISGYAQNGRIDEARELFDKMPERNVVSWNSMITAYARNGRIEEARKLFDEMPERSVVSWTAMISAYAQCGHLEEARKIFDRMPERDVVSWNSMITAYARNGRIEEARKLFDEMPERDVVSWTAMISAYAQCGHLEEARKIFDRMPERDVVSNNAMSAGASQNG

T3: GFP-9S library array, motif 4 ND N98T;D124L (synthetic construct, N98T;D124L)
T3 chain: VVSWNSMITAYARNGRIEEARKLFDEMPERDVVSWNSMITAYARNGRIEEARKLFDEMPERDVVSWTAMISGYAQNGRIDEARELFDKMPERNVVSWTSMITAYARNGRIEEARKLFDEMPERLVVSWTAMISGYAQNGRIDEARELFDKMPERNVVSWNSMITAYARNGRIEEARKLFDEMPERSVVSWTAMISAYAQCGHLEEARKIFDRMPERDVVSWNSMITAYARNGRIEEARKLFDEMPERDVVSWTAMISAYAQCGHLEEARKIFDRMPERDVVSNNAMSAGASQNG

T4: GFP-9S library array, motif 4 ND N98C;D124Y (synthetic construct, N98C;D124Y)
T4 chain: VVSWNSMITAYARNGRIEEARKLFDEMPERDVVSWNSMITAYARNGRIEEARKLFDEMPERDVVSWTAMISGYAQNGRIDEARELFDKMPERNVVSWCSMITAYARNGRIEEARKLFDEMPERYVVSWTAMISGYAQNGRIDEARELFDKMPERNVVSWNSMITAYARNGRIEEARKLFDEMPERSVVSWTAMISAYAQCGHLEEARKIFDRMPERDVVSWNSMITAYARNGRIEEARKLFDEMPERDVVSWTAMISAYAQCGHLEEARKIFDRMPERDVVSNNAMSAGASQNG

T5: GFP-9S library array, motif 4 ND N98C;D124T (synthetic construct, N98C;D124T)
T5 chain: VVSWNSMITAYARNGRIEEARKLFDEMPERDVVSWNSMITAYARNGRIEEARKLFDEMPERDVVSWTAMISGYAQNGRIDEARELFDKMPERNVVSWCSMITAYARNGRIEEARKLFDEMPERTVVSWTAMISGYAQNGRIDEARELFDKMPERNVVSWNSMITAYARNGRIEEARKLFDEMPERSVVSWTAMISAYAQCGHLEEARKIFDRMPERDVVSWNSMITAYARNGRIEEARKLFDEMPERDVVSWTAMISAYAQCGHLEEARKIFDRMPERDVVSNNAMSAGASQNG


Experiments:
Experiment in all cases: high-throughput RNA pulldown from lysate on Ni-NTA beads; HRP: 50 mM Tris pH 8, 150 mM NaCl, 1 mM beta-mercaptoethanol, 50 ug/ml BSA, 3 ug/ml yeast RNA, 0.5% heparin; ITC and FP: Tris pH 8, 200 mM KCl, 5% glycerol; MST: 50 mM Tris pH 8, 200 mM NaCl, 1 mM DTT, BSA, heparin, 0.05% Tween 20
Details in all cases: tags: N-terminal His-eGFP
[1] = target: T1, GFP-9S library array, motif 4 ND N98I
[2] = target: T2, GFP-9S library array, motif 4 ND …
[3] = target: T3, GFP-9S library array, motif 4 ND …
[4] = target: T4, GFP-9S library array, motif 4 ND …
[5] = target: T5, GFP-9S library array, motif 4 ND …

| Binder | Kd ([1]; label: 5' IRDye 800CW) | Kd ([2]; label: 5' IRDye 800CW) | Kd ([3]; label: 5' IRDye 800CW) | Kd ([4]; label: 5' IRDye 800CW) | Kd ([5]; label: 5' IRDye 800CW) | Kd ([1]; label: 5' Cy5) | Kd ([2]; label: 5' Cy5) | Kd ([3]; label: 5' Cy5) | Kd ([4]; label: 5' Cy5) | Kd ([5]; label: 5' Cy5) |
| --- | --- | --- | --- | --- | --- | --- | --- | --- | --- | --- |
| AUUAUACGUGA (ssRNA) [IR-rpoA-U] | 53.5 nM | 874 nM | 174 nM | 94.2 nM | 155 nM | – | – | – | – | – |
| AUUACACGUGA (ssRNA) [Cy5-rpoA] | – | – | – | – | – | 153 nM | 332 nM | 120 nM | 56.9 nM | 245 nM |
| AUUAAACGUGA (ssRNA) [IR-rpoA-A] | 175 nM | 660 nM | 169 nM | 217 nM | 150 nM | – | – | – | – | – |
| AUUAGACGUGA (ssRNA) [Cy5-rpoA-G] | – | – | – | – | – | 127 nM | 297 nM | 120 nM | 72.3 nM | 85.3 nM |

Source: paper PMC8809517, “Cofactor-independent RNA editing by a synthetic S-type PPR protein”
